# Results reported in PMC4288360.
# T1: Recombinant mouse BMP-9 (bone morphogenetic protein 9) (mouse) (UniProt Q9WV56)
# T1 sequence: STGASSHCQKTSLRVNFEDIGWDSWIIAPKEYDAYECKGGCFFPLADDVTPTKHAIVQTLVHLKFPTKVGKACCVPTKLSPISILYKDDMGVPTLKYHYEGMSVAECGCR
# Target: T1, Recombinant mouse BMP-9 (bone morphogenetic protein 9) (mouse)
binder,measurement,value
Activin receptor-like kinase-1 fusion protein (ALK1-Fc) (Fc fusion) DLAKPSKLVNCTCESPHCKRPFCQGSWCTVVLVREQGRHPQVYRGCGSLNQELCLGRPTEFLNHHCCYRSFCNHNVSLMLEATQTPSEEPEVDAHLP,"inhibition of BMP-9 (50 ng/ml)-induced alkaline phosphatase activity in murine VSMCs by ALK1-Fc (250 ng/ml and 1 μg/ml; value at 1 μg/ml), 4 days; blocks BMP-9 acting on ALK1 of the cells",33%
